Holding throughout (assay): co-IP; HEK293T co-transfected with FLAG-Siah construct and HA-PHD3; lysate on anti-FLAG M2 agarose beads, 4°C 1 hour, washed with NP40 lysis buffer; blot with anti-HA; densitometry as percentage of WT Siah2 SBD for Fig. 7c
Test [1] addresses SBD[S1]^NT[S2]^CT (SBD chimera with Siah1 N-terminus and Siah2 C-terminus) (human).
Test [2] deals with [S1-6Mut]^NT[S2]^CT (6Mut = E17S/P21H/A26P/P57S/Q62A/F98H) (human).
Test [3] addresses [S1-8Mut]^NT[S2]^CT (8Mut = N3S/E17S/P21H/A26P/F34Y/P57S/Q62A/F98H) (human).

The text below walks through data of publication PMC4159269.

Turning to “HA-PHD3 (prolyl hydroxylase 3) (from UniProt Q9H6Z9 1-239) (natural protein)”, the values for the binding as percentage of the binding of WT Siah2 SBD to PHD3 (densitometry) in test [1], in test [2] and in test [3] were 4 percent, 29 percent and 48 percent, respectively.
